Results published in the Immune Epitope Database (IEDB).
Each block holds one sequence with its values, some of them ahead of it.

Key:
HLA-C*05:01 = experiment: IEDB peptide-MHC binding, purified MHC/direct/fluorescence; filed as Kd, often an IC50 or EC50 that approximates it; ≥ and ≤ were set here for values at or beyond the usual limits of such assays; conditions: source organism: human gammaherpesvirus 4
HLA-C*08:02 = experiment: as above
HLA-C*15:02 = experiment: as above
HLA-B*15:01 = experiment: as above
HLA-A*69:01 = experiment: as above
HLA-A*11:01 [1] = experiment: as above
HLA-A*01:01 = experiment: as above
HLA-A*02:01 [2] = experiment: as above
HLA-A*02:06 = experiment: IEDB peptide-MHC binding, purified MHC/competitive/radioactivity; filed as Kd, often an IC50 or EC50 that approximates it; ≥ and ≤ were set here for values at or beyond the usual limits of such assays; conditions: source organism: Vaccinia virus WR
HLA-A*02:02 = experiment: as above; conditions: source organism: Vaccinia virus WR
HLA-A*02:03 = experiment: as above; conditions: source organism: Vaccinia virus WR
HLA-A*02:01 [3] = experiment: IEDB peptide-MHC binding, purified MHC/competitive/fluorescence; filed as Kd, often an IC50 or EC50 that approximates it; ≥ and ≤ were set here for values at or beyond the usual limits of such assays
HLA-B*48:01 = experiment: IEDB peptide-MHC binding, purified MHC/direct/fluorescence; filed as Kd, often an IC50 or EC50 that approximates it; ≥ and ≤ were set here for values at or beyond the usual limits of such assays
HLA-B*73:01 = experiment: as above
HLA-B*27:05 [4] = experiment: as above
HLA-A*26:01 = experiment: as above
HLA-A*31:01 [5] = experiment: as above; conditions: source organism: Brucella abortus
HLA-B*44:02 = experiment: as above
HLA-A*03:01 [6] = experiment: as above
HLA-B*08:01 = experiment: as above
HLA-B*07:02 [7] = experiment: as above
HLA-B*40:01 = experiment: as above
HLA-B*58:01 = experiment: as above
HLA-A*26:03 = experiment: as above; conditions: source organism: Vibrio parahaemolyticus AQ3810
HLA-A*26:02 = experiment: as above; conditions: source organism: Bacillus anthracis str. A0465
HLA-B*46:01 = experiment: IEDB peptide-MHC binding, purified MHC/competitive/fluorescence; filed as Kd, often an IC50 or EC50 that approximates it; ≥ and ≤ were set here for values at or beyond the usual limits of such assays; conditions: source organism: Bacillus anthracis str. A2012
HLA-B*35:01 = experiment: IEDB peptide-MHC binding, purified MHC/competitive/radioactivity; filed as Kd, often an IC50 or EC50 that approximates it; ≥ and ≤ were set here for values at or beyond the usual limits of such assays; conditions: source organism: Vaccinia virus Copenhagen
HLA-A*33:01 = experiment: as above; conditions: source organism: Vaccinia virus Copenhagen
HLA-B*54:01 = experiment: as above; conditions: source organism: Vaccinia virus Copenhagen
HLA-A*31:01 [8] = experiment: as above; conditions: source organism: Vaccinia virus Copenhagen
HLA-A*11:01 [9] = experiment: as above; conditions: source organism: Vaccinia virus Copenhagen
HLA-B*53:01 = experiment: as above; conditions: source organism: Vaccinia virus Copenhagen
HLA-A*03:01 [10] = experiment: as above; conditions: source organism: Vaccinia virus Copenhagen
HLA-B*51:01 = experiment: as above; conditions: source organism: Vaccinia virus Copenhagen
HLA-B*07:02 [11] = experiment: as above; conditions: source organism: Vaccinia virus Copenhagen
HLA-A*68:01 = experiment: as above; conditions: source organism: Vaccinia virus Copenhagen
HLA-B*39:01 = experiment: IEDB peptide-MHC binding, purified MHC/competitive/fluorescence; filed as Kd, often an IC50 or EC50 that approximates it; ≥ and ≤ were set here for values at or beyond the usual limits of such assays; conditions: source organism: Escherichia coli B171
HLA-B*27:05 [12] = experiment: as above; conditions: source organism: Escherichia coli B171
HLA-A*30:01 = experiment: IEDB peptide-MHC binding, purified MHC/direct/fluorescence; filed as Kd, often an IC50 or EC50 that approximates it; ≥ and ≤ were set here for values at or beyond the usual limits of such assays; conditions: source organism: Vibrio parahaemolyticus
HLA-C*03:03 = experiment: as above; conditions: source organism: Burkholderia mallei SAVP1
HLA-A*02:12 = experiment: IEDB peptide-MHC binding, purified MHC/competitive/fluorescence; filed as Kd, often an IC50 or EC50 that approximates it; ≥ and ≤ were set here for values at or beyond the usual limits of such assays; conditions: source organism: Burkholderia mallei SAVP1
[13] = source organism: Vaccinia virus Copenhagen
[14] = source organism: Bacillus anthracis
[15] = source organism: Brucella abortus
[16] = source organism: Vibrio parahaemolyticus
[17] = source organism: Burkholderia mallei SAVP1
[18] = source organism: Listeria monocytogenes

Sequence: ASDYSQGAF
Kd (HLA-C*05:01): ≤ 0.001 µM
Kd (HLA-C*08:02; source organism: human gammaherpesvirus 4): ≤ 0.001 µM

Kd (HLA-C*15:02; source organism: Pseudomonas aeruginosa PACS2): 0.106 µM
Sequence: TSYPTAVQF

Kd (HLA-B*15:01; source organism: Homo sapiens): 0.437 µM
Kd (HLA-A*69:01; source organism: Homo sapiens): 18 µM
Kd (HLA-A*11:01 [1]; source organism: Homo sapiens): ≥ 24.4 µM
Kd (HLA-A*01:01; source organism: Homo sapiens): 0.0668 µM
Kd (HLA-C*08:02; source organism: Xenopus laevis): ≥ 20 µM
Kd (HLA-A*02:01 [2]; source organism: Homo sapiens): 3.36 µM
Sequence: YLDDPDLKY

Sequence: KLFTHDIML
Kd (HLA-C*15:02; [13]): ≥ 20 µM
Kd (HLA-A*02:06): 0.00474 µM
Kd (HLA-A*02:02): 0.00105 µM
Kd (HLA-A*02:03): 0.00295 µM
Kd (HLA-A*02:01 [3]; [13]): 0.0005 µM

Sequence: RRMMMRITE
Kd (HLA-B*48:01; [14]): ≥ 20 µM
Kd (HLA-B*73:01; source organism: Bacillus cereus B4264): 1.15 µM
Kd (HLA-B*27:05 [4]; [14]): 0.28 µM

Sequence: GRKTPLLCF
Kd (HLA-B*15:01; [15]): ≥ 20 µM
Kd (HLA-A*26:01; [15]): ≥ 20 µM
Kd (HLA-A*31:01 [5]): ≥ 20 µM
Kd (HLA-B*44:02; [15]): ≥ 20 µM
Kd (HLA-A*69:01; [15]): ≥ 20 µM
Kd (HLA-B*73:01; source organism: Brucella suis 1330): ≥ 20 µM
Kd (HLA-A*11:01 [1]; [15]): ≥ 20 µM
Kd (HLA-A*03:01 [6]; [15]): ≥ 20 µM
Kd (HLA-B*27:05 [4]; source organism: Brucella melitensis): 0.939 µM
Kd (HLA-A*01:01; [15]): ≥ 20 µM
Kd (HLA-B*08:01; [15]): ≥ 20 µM
Kd (HLA-B*07:02 [7]; [15]): ≥ 20 µM
Kd (HLA-A*02:01 [2]; [15]): ≥ 20 µM
Kd (HLA-B*40:01; [15]): ≥ 20 µM
Kd (HLA-B*58:01; [15]): ≥ 20 µM

Sequence: QTWHGDAPY
Kd (HLA-A*26:03): 0.277 µM

Sequence: FFLFPMAAY
Kd (HLA-A*26:01; source organism: Bacillus anthracis str. A0465): 0.49 µM
Kd (HLA-A*26:02): 0.002 µM
Kd (HLA-B*46:01): 0.0982 µM

Sequence: ILDDNLYKV
Kd (HLA-C*08:02; source organism: Variola virus): 0.379 µM
Kd (HLA-B*35:01): ≥ 77.4 µM
Kd (HLA-A*33:01): ≥ 77.7 µM
Kd (HLA-B*54:01): ≥ 78.1 µM
Kd (HLA-A*31:01 [8]): ≥ 54 µM
Kd (HLA-A*11:01 [9]): 2.76 µM
Kd (HLA-B*53:01): ≥ 78.2 µM
Kd (HLA-A*03:01 [10]): 12.3 µM
Kd (HLA-B*51:01): ≥ 77.5 µM
Kd (HLA-B*07:02 [11]): ≥ 77.5 µM
Kd (HLA-A*68:01): ≥ 77.7 µM
Kd (HLA-A*02:01 [3]; source organism: Variola virus): 0.0007 µM

Kd (HLA-B*39:01): ≥ 20 µM
Kd (HLA-B*27:05 [12]): ≥ 20 µM
Kd (HLA-A*02:01 [3]; source organism: Escherichia coli B171): 4 µM
Sequence: QTNLYNLLY

Sequence: IRSCWRYRK
Kd (HLA-B*15:01; [16]): ≥ 20 µM
Kd (HLA-A*26:01; [16]): ≥ 20 µM
Kd (HLA-B*44:02; [16]): ≥ 20 µM
Kd (HLA-A*69:01; [16]): ≥ 20 µM
Kd (HLA-B*73:01; source organism: Vibrio parahaemolyticus AQ3810): 3.88 µM
Kd (HLA-A*11:01 [1]; [16]): 2.14 µM
Kd (HLA-A*03:01 [6]; [16]): 7.86 µM
Kd (HLA-A*30:01): 0.516 µM
Kd (HLA-B*27:05 [4]; [16]): 0.0748 µM
Kd (HLA-A*01:01; [16]): ≥ 20 µM
Kd (HLA-B*08:01; [16]): ≥ 20 µM
Kd (HLA-B*07:02 [7]; [16]): ≥ 20 µM
Kd (HLA-A*02:01 [2]; [16]): ≥ 20 µM
Kd (HLA-B*40:01; [16]): ≥ 20 µM
Kd (HLA-B*58:01; [16]): ≥ 20 µM

Sequence: YVTPRALEL
Kd (HLA-C*03:03): ≤ 0.001 µM
Kd (HLA-C*08:02; [17]): 0.122 µM
Kd (HLA-A*02:12): ≥ 10 µM
Kd (HLA-A*02:01 [3]; [17]): 1.76 µM

Sequence: KRYKQMCTK
Kd (HLA-B*48:01; [18]): ≥ 20 µM
Kd (HLA-B*73:01; source organism: Listeria monocytogenes serotype 4b str. H7858): ≥ 20 µM
Kd (HLA-B*27:05 [4]; [18]): 0.177 µM
